# Data from publication PMC5336307, “The thermodynamics of Pr55Gag-RNA interaction regulate the assembly of HIV”.
# What was measured:
# Assay in all cases: ITC; ITC at 30 C in TBS with 1 mM TCEP (pH not stated); 8 uM (6-10) protein in cell, 40 uM (15-50) nucleic acid in syringe; one-site model
# Pr55Gag [1] = biological target: T1, Pr55Gag (HIV-1, UniProt P12493 1-500); details: protein: recombinant, tags: C-terminal His
# p15NC-SP2-p6 = p15NC-SP2-p6 (HIV-1, UniProt P12493 378-500); details: protein: recombinant, tags: C-terminal His
# Pr50GagΔp6-TEV = Pr50GagΔp6-TEV (HIV-1, UniProt P12493 1-448); details: protein: recombinant; tags: His removed by TEV protease; TEV site remnant at C-term
# Pr50GagΔp6 = Pr50GagΔp6 (HIV-1, UniProt P12493 1-448); details: protein: recombinant, tags: C-terminal His
# p7NC = p7NC (HIV-1, UniProt P12493 378-432); details: protein: recombinant, tags: C-terminal His
# Pr55Gag-TEV = Pr55Gag-TEV (HIV-1, UniProt P12493 1-500); details: protein: recombinant; tags: His removed by TEV protease; TEV site remnant at C-term
# Pr55Gag [2] = biological target: T1, Pr55Gag; details: protein: recombinant; tags: C-terminal His
binder,measurement,setting,value
GAUGGGAUGGGAUGGGAUGG (ssRNA) [4x 5'-GAUGG-3' (GU-containing)],binding result,Pr55Gag [1],binds
same,binding result,p15NC-SP2-p6,binds
same,binding result,Pr50GagΔp6-TEV,binds
same,binding result,Pr50GagΔp6,binds
same,binding result,p7NC,binds
same,binding result,Pr55Gag-TEV,binds
CUUAGAAAUAGGGCAGCAUAGAACAAAAAUAGAGGAA (ssRNA) [HIVNL4.3RNA2671-2707],binding result,Pr50GagΔp6-TEV,binds
same,binding result,Pr55Gag-TEV,binds
GAGAAGAGAAGAGAAGAGAA (ssRNA) [4x 5'-GAGAA-3' (A-containing)],binding signal,Pr55Gag [2],~3 fold stronger Kd than GU-containing RNA (average over sets)
GGACUAGCGGAGGCUAGUCC (structured_RNA) [Psi SL3 RNA (20mer)],Kd,Pr55Gag [1]; hairpin,81 ± 25 nM
same,Kd,p15NC-SP2-p6; hairpin,57 ± 11 nM
same,Kd,Pr50GagΔp6; hairpin,98 ± 3 nM
same,Kd,p7NC; hairpin,48 ± 23 nM
